Reference: article PMC10252337

Legend:
[1] = molecular target: eel luteinizing hormone receptor D576G (constitutively activating mutant) (eel)
[2] = molecular target: eel luteinizing hormone receptor, wild type (eel)
[3] = molecular target: eel luteinizing hormone receptor D576G (constitutively activating mutant) (eel); remark: listed apart in the source
[4] = molecular target: eel luteinizing hormone receptor R476H (inactivating mutant) (eel)
[5] = molecular target: eel luteinizing hormone receptor, wild type (eel); remark: listed apart in the source

| Substance | EC50 of cAMP production (HTRF) in CHO-K1 cells expressing the receptor, stimulated with rec-eel LH for 30 min [1] [ng/mL] | EC50 of cAMP production (HTRF) in CHO-K1 cells expressing the receptor, stimulated with rec-eel LH for 30 min [2] [ng/mL] | plateau of agonist-induced loss of cell-surface receptor (ELISA on HEK-293 cells, 0-60 min, one-phase exponential decay) [3] | t1/2 of agonist-induced loss of cell-surface receptor (ELISA on HEK-293 cells, 0-60 min, one-phase exponential decay) [3] [min] | plateau of agonist-induced loss of cell-surface receptor (ELISA on HEK-293 cells, 0-60 min, one-phase exponential decay) [4] | t1/2 of agonist-induced loss of cell-surface receptor (ELISA on HEK-293 cells, 0-60 min, one-phase exponential decay) [4] [min] | plateau of agonist-induced loss of cell-surface receptor (ELISA on HEK-293 cells, 0-60 min, one-phase exponential decay) [5] | t1/2 of agonist-induced loss of cell-surface receptor (ELISA on HEK-293 cells, 0-60 min, one-phase exponential decay) [5] [min] |
| --- | --- | --- | --- | --- | --- | --- | --- | --- |
| recombinant eel luteinizing hormone, single-chain eel LHβ/α (ligand) | 94.8 | 177 | 59.8 % of control | 0.6 | 61.9 % of control | 0.6 | 64.2 % of control | 0.9 |
| recombinant equine chorionic gonadotropin (from UniProt P08751 21-169; P01220 25-120) (ligand) |  |  | 46.3 % of control | 2.1 | 42.6 % of control | 1.9 | 56.8 % of control | 2.5 |
